For this experiment, the target named is H7N9病毒的神经氨酸酶(NA) (avian influenza virus H7N9). Nature of the experiment: cell-based or functional assay.

B1: 抗禽流感H7N9神经氨酸酶抗原的单克隆抗体D3 (antibody, V domains shown)
VH: IQVKLQESGPELVKPGASVKISCKASGYSFTGYYMHWVKQSHVKSLQWIGRINPYNGATSYNQNFKDKASLTVDKSSSTAYMELHSLTSEDSAVYYCARSGNYAMDYWGQGTTVTVSS
VL: DIELTQSPASLAVSLGQRATISYRASKSVSTSGYSYMHWNQQKPGQPPRLLIYLVSNLESGVPARFSGSGSGTDFTLNIHPVEEEDAATYYCQHIRELTRSEGGPSSRSN
Consider B1, for which the NA活性抑制IC50 (酶联凝集素法 ELLA) was 5.22 µg/mL.
